Data taken from patent US20100297120A1.

Biological target: epidermal growth factor receptor (EGFR) on EGFR positive U87 cells (UniProt P00533)
Experiment: FACS, saturation binding to EGFR on cells

Bmax (RFU)	Half saturation [nM]	Substance
23.6	1.7	EGFR antibody (monoclonal 528 available from ATCC)
	1.8	Anti-EGFR-Angiopep-2 conjugate (EGFR antibody monoclonal 528 cross-linked to Angiopep-2 with SATA)
